Results reported in paper PMC9482650, “Quantitative fragmentomics allow affinity mapping of interactomes” (Nature Communications, 2022).

T1: MPDZ_5, O75970
T1 sequence (O75970 695-796, limits assumed, looked up): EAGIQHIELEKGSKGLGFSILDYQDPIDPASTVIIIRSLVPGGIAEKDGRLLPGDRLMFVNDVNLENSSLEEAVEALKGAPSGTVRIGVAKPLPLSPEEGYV

T2: MPP7, Q5T2T1
T2 sequence (Q5T2T1 134-230, limits assumed, looked up): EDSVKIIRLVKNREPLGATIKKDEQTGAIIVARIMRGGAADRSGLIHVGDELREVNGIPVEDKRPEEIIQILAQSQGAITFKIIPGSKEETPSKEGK

T3: DLG3_3, Q92796
T3 sequence (Q92796 374-475, limits assumed, looked up): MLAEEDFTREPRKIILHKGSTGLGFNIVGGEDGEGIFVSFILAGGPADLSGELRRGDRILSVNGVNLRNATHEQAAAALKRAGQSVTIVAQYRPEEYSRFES

T4: SYNJ2BP, P57105
T4 sequence (P57105 8-110, limits assumed, looked up): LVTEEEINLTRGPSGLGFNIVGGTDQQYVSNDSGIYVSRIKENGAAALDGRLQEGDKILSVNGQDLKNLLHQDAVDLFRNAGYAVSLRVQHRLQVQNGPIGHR

T5: CARD11, Q9BXL7
T5 sequence (Q9BXL7 662-765, limits assumed, looked up): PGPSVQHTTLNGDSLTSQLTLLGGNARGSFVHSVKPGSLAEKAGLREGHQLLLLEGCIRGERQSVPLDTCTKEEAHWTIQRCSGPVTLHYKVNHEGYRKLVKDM

T6: GRIP1_3, Q9Y3R0
T6 sequence (Q9Y3R0 247-346, limits assumed, looked up): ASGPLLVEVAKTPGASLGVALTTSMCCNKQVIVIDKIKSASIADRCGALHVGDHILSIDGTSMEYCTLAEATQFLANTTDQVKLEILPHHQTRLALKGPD

T7: RHPN1, Q8TCX5
T7 sequence (Q8TCX5 508-602, limits assumed, looked up): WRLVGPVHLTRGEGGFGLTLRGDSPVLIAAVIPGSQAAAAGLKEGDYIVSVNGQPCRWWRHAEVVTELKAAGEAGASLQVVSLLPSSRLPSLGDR

T8: SIPA1L2, Q9P2F8
T8 sequence (Q9P2F8 945-1036, limits assumed, looked up): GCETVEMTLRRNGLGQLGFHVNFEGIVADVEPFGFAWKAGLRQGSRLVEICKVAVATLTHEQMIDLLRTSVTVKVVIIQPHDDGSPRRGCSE

T9: DLG3_2, Q92796
T9 sequence (Q92796 221-321, limits assumed, looked up): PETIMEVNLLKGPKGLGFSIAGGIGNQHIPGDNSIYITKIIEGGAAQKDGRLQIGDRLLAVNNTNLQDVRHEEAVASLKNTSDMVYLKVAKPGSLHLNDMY

T10: ARHGEF11, O15085
T10 sequence (O15085 42-136, limits assumed, looked up): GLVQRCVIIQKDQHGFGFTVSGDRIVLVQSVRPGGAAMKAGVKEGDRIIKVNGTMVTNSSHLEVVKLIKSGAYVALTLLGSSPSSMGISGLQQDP

T11: RADIL, Q96JH8
T11 sequence (Q96JH8 971-1071, limits assumed, looked up): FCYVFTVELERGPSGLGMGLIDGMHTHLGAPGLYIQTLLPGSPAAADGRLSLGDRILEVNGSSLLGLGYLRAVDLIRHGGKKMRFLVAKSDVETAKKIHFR

T12: DFNB31_1, Q9P202
T12 sequence (Q9P202 135-233, limits assumed, looked up): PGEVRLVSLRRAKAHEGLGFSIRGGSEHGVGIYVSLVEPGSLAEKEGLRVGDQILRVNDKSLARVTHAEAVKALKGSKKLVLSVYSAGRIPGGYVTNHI

T13: LRRC7, Q96NW7
T13 sequence (Q96NW7 1440-1537, limits assumed, looked up): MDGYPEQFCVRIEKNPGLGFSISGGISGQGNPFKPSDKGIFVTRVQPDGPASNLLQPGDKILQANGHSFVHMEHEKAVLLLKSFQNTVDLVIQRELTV


Legend:
Assay in all cases: holdup assay
Design in all cases: key: below the threshold = too weak to quantify, mostly under pKd 3.1 to 4
Details in all cases: plain residues with an end cap or a label only (N-terminal biotin on a linker: ado-ado)
MPDZ_5, O75970 = biological target: T1, MPDZ_5, O75970
ARHGEF12, Q9NZN5-2 = biological target: ARHGEF12, Q9NZN5-2
GRIP2_6, Q9C0E4 = biological target: GRIP2_6, Q9C0E4
Inadl_1, Q8NI35 = biological target: Inadl_1, Q8NI35
MPP7, Q5T2T1 = biological target: T2, MPP7, Q5T2T1
DLG3_3, Q92796 = biological target: T3, DLG3_3, Q92796
SYNJ2BP, P57105 = biological target: T4, SYNJ2BP, P57105
Inadl_6, Q8NI35 = biological target: Inadl_6, Q8NI35
CARD11, Q9BXL7 = biological target: T5, CARD11, Q9BXL7
SNX27, Q96L92 = biological target: SNX27, Q96L92
GRIP1_3, Q9Y3R0 = biological target: T6, GRIP1_3, Q9Y3R0
MAGI2_2, Q86UL8 = biological target: MAGI2_2, Q86UL8
TJP1_3, Q07157 = biological target: TJP1_3, Q07157
HTRA1, Q92743 = biological target: HTRA1, Q92743
RHPN1, Q8TCX5 = biological target: T7, RHPN1, Q8TCX5
SIPA1L2, Q9P2F8 = biological target: T8, SIPA1L2, Q9P2F8
NHERF4_2, Q86UT5 = biological target: NHERF4_2, Q86UT5
GRIP2_5, Q9C0E4 = biological target: GRIP2_5, Q9C0E4
DLG3_2, Q92796 = biological target: T9, DLG3_2, Q92796
FRMPD2_3, Q68DX3 = biological target: FRMPD2_3, Q68DX3
ARHGEF11, O15085 = biological target: T10, ARHGEF11, O15085
RADIL, Q96JH8 = biological target: T11, RADIL, Q96JH8
DFNB31_1, Q9P202 = biological target: T12, DFNB31_1, Q9P202
LRRC7, Q96NW7 = biological target: T13, LRRC7, Q96NW7

Sequence of FRMPD2_3, Q68DX3 (Q68DX3 1073-1166): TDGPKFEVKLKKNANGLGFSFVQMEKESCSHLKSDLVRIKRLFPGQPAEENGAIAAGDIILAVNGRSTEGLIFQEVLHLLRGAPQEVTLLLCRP
Sequence of GRIP2_6, Q9C0E4 (Q9C0E4 648-740): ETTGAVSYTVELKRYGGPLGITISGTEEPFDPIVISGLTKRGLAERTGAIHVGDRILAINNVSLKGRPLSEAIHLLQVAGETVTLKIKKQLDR
Sequence of Inadl_1, Q8NI35 (Q8NI35 113-229): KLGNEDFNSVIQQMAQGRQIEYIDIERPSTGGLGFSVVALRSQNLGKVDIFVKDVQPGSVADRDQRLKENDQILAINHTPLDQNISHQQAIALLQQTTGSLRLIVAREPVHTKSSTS
Sequence of HTRA1, Q92743 (Q92743 360-477): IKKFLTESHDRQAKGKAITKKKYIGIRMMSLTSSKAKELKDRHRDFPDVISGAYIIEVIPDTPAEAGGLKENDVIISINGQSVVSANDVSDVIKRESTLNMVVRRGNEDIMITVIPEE
Sequence of NHERF4_2, Q86UT5 (Q86UT5 220-308): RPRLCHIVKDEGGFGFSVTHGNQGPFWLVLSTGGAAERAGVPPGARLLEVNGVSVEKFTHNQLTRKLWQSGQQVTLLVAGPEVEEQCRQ
Sequence of ARHGEF12, Q9NZN5-2 (Q9NZN5 other isoform, or with tags, fused parts or gaps): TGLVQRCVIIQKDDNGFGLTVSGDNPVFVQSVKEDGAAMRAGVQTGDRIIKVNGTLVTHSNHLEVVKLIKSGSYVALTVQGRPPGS
Sequence of TJP1_3, Q07157 (Q07157 416-512): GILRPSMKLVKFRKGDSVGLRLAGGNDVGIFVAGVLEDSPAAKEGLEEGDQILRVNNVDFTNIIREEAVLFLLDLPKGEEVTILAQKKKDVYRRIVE
Sequence of GRIP2_5, Q9C0E4 (Q9C0E4 544-642): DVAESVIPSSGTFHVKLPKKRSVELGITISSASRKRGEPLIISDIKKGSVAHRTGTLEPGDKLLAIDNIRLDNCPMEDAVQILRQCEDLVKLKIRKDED
Sequence of MAGI2_2, Q86UL8 (Q86UL8 410-522): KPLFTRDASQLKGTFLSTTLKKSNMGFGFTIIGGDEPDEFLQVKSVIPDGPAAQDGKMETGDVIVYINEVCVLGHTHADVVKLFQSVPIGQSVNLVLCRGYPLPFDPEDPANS
Sequence of Inadl_6, Q8NI35 (Q8NI35 1058-1167): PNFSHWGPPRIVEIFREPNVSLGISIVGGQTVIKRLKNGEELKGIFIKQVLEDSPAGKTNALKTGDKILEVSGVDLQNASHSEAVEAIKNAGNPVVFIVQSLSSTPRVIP

| pKd (MPDZ_5, O75970) | pKd (ARHGEF12, Q9NZN5-2) | pKd (GRIP2_6, Q9C0E4) | pKd (Inadl_1, Q8NI35) | pKd (MPP7, Q5T2T1) | pKd (DLG3_3, Q92796) | pKd (SYNJ2BP, P57105) | pKd (Inadl_6, Q8NI35) | pKd (CARD11, Q9BXL7) | pKd (SNX27, Q96L92) | pKd (GRIP1_3, Q9Y3R0) | pKd (MAGI2_2, Q86UL8) | pKd (TJP1_3, Q07157) | pKd (HTRA1, Q92743) | pKd (RHPN1, Q8TCX5) | pKd (SIPA1L2, Q9P2F8) | pKd (NHERF4_2, Q86UT5) | pKd (GRIP2_5, Q9C0E4) | pKd (DLG3_2, Q92796) | pKd (FRMPD2_3, Q68DX3) | Binder | also measured |
| --- | --- | --- | --- | --- | --- | --- | --- | --- | --- | --- | --- | --- | --- | --- | --- | --- | --- | --- | --- | --- | --- |
| below the threshold | below the threshold | below the threshold | below the threshold | below the threshold | below the threshold | below the threshold | below the threshold | below the threshold | below the threshold | below the threshold | below the threshold | below the threshold | 4.32 | below the threshold | below the threshold | below the threshold | below the threshold | 4.05 | below the threshold | PYPTADHMLA [JUP, P14923] | pKd (ARHGEF11, O15085): below the threshold; pKd (RADIL, Q96JH8): below the threshold; pKd (DFNB31_1, Q9P202): below the threshold; pKd (LRRC7, Q96NW7): below the threshold |
| below the threshold | below the threshold | below the threshold | below the threshold | below the threshold | below the threshold | below the threshold | below the threshold | below the threshold | below the threshold | below the threshold | below the threshold | below the threshold | below the threshold | below the threshold | below the threshold | below the threshold | below the threshold | 4.11 | below the threshold | EKCGKEFSEF [PRKACA, P17612] | pKd (ARHGEF11, O15085): below the threshold; pKd (RADIL, Q96JH8): below the threshold; pKd (DFNB31_1, Q9P202): below the threshold; pKd (LRRC7, Q96NW7): below the threshold |
| below the threshold | below the threshold | below the threshold | below the threshold | below the threshold | below the threshold | below the threshold | below the threshold | below the threshold | below the threshold | below the threshold | below the threshold | below the threshold | 5.29 | 3.57 | below the threshold | below the threshold | below the threshold | 4.09 | below the threshold | EDLEDEWEVI [TECPR2, O15040] | pKd (ARHGEF11, O15085): below the threshold; pKd (RADIL, Q96JH8): below the threshold; pKd (DFNB31_1, Q9P202): below the threshold; pKd (LRRC7, Q96NW7): below the threshold |
| 3.48 | below the threshold | 4.1 | below the threshold | below the threshold | below the threshold | below the threshold | below the threshold | below the threshold | below the threshold | below the threshold | below the threshold | below the threshold | 4.47 | below the threshold | below the threshold | below the threshold | below the threshold | 4.18 | 3.67 | QKAPTKEFYA [SDC2, P34741] | pKd (ARHGEF11, O15085): below the threshold; pKd (RADIL, Q96JH8): 3.51; pKd (DFNB31_1, Q9P202): below the threshold; pKd (LRRC7, Q96NW7): below the threshold |
| below the threshold | below the threshold | below the threshold | below the threshold | below the threshold | below the threshold | 3.58 | below the threshold | below the threshold | 4.17 | below the threshold | below the threshold | below the threshold | 4.11 | below the threshold | below the threshold | below the threshold | below the threshold | 4.26 | below the threshold | QLSFNTDTLC [ABCA2, Q9BZC7] | pKd (ARHGEF11, O15085): below the threshold; pKd (RADIL, Q96JH8): 3.49; pKd (DFNB31_1, Q9P202): below the threshold; pKd (LRRC7, Q96NW7): below the threshold |
| below the threshold | 4.06 | 3.55 | below the threshold | below the threshold | 4.77 | 5.19 | below the threshold | below the threshold | 5.41 | below the threshold | 5.22 | below the threshold | 4.32 | 4.44 | below the threshold | below the threshold | below the threshold | 5.25 | below the threshold | TGLWKHETTV [ADGRA3, Q8IWK6] | pKd (ARHGEF11, O15085): 4.31; pKd (RADIL, Q96JH8): 4.43; pKd (DFNB31_1, Q9P202): 3.9; pKd (LRRC7, Q96NW7): 3.82 |
